T1: Human IL-17F (human, UniProt Q96PD4 31-163)
T1 sequence (looked up): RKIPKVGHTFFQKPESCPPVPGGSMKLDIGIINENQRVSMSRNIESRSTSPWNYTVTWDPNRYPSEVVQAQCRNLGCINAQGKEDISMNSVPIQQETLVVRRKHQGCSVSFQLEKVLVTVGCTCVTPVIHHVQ


Tests used:
[1] = target: T2, Human IL-13 (human, UniProt P35225 35-146); experiment: SPR, antibody captured on anti-human F(ab')2, 25 nM IL-13 injected
[2] = target: T2, Human IL-13; experiment: SPR (Biacore T200), antibody captured on anti-human F(ab')2, human IL-13 as analyte, 25 C, 1:1 model
Description: (§1) A goat anti-human IgG, F(ab′)₂ fragment specific antibody (Jackson ImmunoResearch) was immobilised on a CM5 Sensor Chip via amine coupling chemistry to a level of approximately 5000 RU. […] At the end of each cycle the surface was regenerated at a flowrate of 10 μl/min using a 60 s injection of 50 mM HCl followed by a 30 s injection of 5 mM NaOH and a final 60 s injection of 50 mM HCl. […] Buffer blank injections were included to subtract instrument noise and drift.
(§2) Kinetic parameters were determined using a 1:1 binding model using Biacore T200 Evaluation software (version 3.0).

[3] = target: Human IL-17A (human, UniProt Q16552 24-155); experiment: SPR (Biacore T200), antibody captured on anti-human F(ab')2, human IL-17A as analyte, 25 C, 1:1 model
Description: as §1, §2

[4] = target: T1, Human IL-17F; experiment: SPR (Biacore T200), antibody captured on anti-human F(ab')2, human IL-17F as analyte, 25 C, 1:1 model
Description: as §1, §2

[5] = target: T2, Human IL-13; experiment: SPR, 100 nM IL-13Rα2 injected over IL-13 held by captured UCBXXXX (competitor)

IL-13 Binding (RU) [1] [RU]	Kd [2] [nM]	koff [2] [s⁻¹]	kon [2] [M⁻¹ s⁻¹]	Kd [3] [nM]	koff [3] [s⁻¹]	kon [3] [M⁻¹ s⁻¹]	Kd [4] [nM]	koff [4] [s⁻¹]	kon [4] [M⁻¹ s⁻¹]	IL-13Rα2 Binding (RU) [5] [RU]	Molecule
8.6	0.0275	5.69e-05	2.05e+06	0.0844	0.00106	1.27e+07	0.0744	0.000574	7.71e+06		BITS7201A (Genentech) (bispecific antibody)
										0.3	IL-13Rα2 (from UniProt Q14627 27-343) (receptor)
	0.0184	1.5e-05	816000	0.137	7.68e-05	559000					DVD2166 (Abbvie) (bispecific antibody) chain 1: EVQLVQSGAEVKKPGASVKVSCKASGYTFTTYGVSWVRQAPGQGLEWMGEIYPGNYNTYYNEKFRGRVTMTTDTSTSTAYMELRSLRSDDTAVYYCARWRTSYFSDYGYFDYWGQGTTVTVSSASTKGPEVQLVQSGAEVKKPGSSVKVSCKASGYTFTDYEIHWVRQAPGQGLEWMGVNDPESGGTFYNQKFDGRVTLTADESTSTAYMELSSLRSEDTAVYYCTRYSKWDSFDGMDYWGQGTTVTVSS chain 2: DVVMTQSPLSLPVTLGQPASISCRSSQSLVHSHGNTYLHWYQQRPGQSPRLLIYTVSNRFSGVPDRFSGSGSGTDFTLKISRVEAEDVGVYYCSQSTHVPYTFGGGTKVEIKRTVAAPDIQMTQSPSSLSASVGDRVTITCRASSGIISYIDWFQQKPGKAPKRLIYATFDLASGVPSRFSGSGSGTDYTLTISSLQPEDFATYYCRQVGSYPETFGQGTKLEIKR
	0.0563	3.66e-05	650000	0.268	0.000128	476000					DVD2174 (Abbvie) (bispecific antibody) chain 1: EVQLVQSGAEVKKPGASVKVSCKASGYTFTTYGVSWVRQAPGQGLEWMGEIYPGNYNTYYNEKFRGRVTMTTDTSTSTAYMELRSLRSDDTAVYYCARWRTSYFSDYGYFDYWGQGTTVTVSSASTKGPEVQLVQSGAEVKKPGSSVKVSCKASGGSFGGYGIGWVRQAPGQGLEWMGGITPFFGFADYAQKFQGRVTITADESTTTAYMELSGLTSDDTAVYYCARDPNEFWNGYYSTHDFDSWGQGTTVTVSS chain 2: DVVMTQSPLSLPVTLGQPASISCRSSQSLVHSHGNTYLHWYQQRPGQSPRLLIYTVSNRFSGVPDRFSGSGSGTDFTLKISRVEAEDVGVYYCSQSTHVPYTFGGGTKVEIKRTVAAPSVFIFPPEIVLTQSPDFQSVTPKEKVTITCRASQDIGSELHWYQQKPDQPPKLLIKYASHSTSGVPSRFSGSGSGTDFTLTINGLEAEDAGTYYCHQTDSLPYTFGPGTKVDIKR
